The results in this text go back to US20250346679A1 (INVOX PHARMA, published 2025).

The target in experiment [1] is T1, human CD137, cell-surface (human, UniProt Q07011 24-255). Nature of the experiment: cell-based or functional assay.
Experiment [2] concerns the target T1, human CD137, cell-surface. The experiment can be described thus: cell-based or functional assay. This is another data set of the same source.
For experiment [3], the target named is T1, human CD137, cell-surface. Nature of the experiment: cell-based or functional assay. The source holds these as a separate data set.
The next experiment concerns the target T2, hPD-L1-His-Avi (human).
T2 construct: also called human PD-L1-His Avi; Human PD-L1 His
Nature of the experiment: SPR, mAb^2 captured on immobilised human PD-L1 His, then hCD137-mFc-Avi (100 nM) in flow. (Surface plasmon resonance follows binding to a sensor surface in real time, without labels.)

The target in experiment [4] is Human FcRn (Acro Biosystems, FCM-H5286) (human, UniProt P55899 24-297; P61769 21-119). The experiment can be described thus: SPR, mAb^2 immobilised, FcRn in flow, pH 6.0, steady state affinity; pH 6.0. The text has this: (§1) The neonatal Fc receptor (FcRn) binding is critical for antibody recycling (Martins et al., 2016). […] G1-AA/HeID1.3 was included as an isotype control IgG control lacking mutations in the CH3 domain.
(§2) Briefly, mAb² were individually coated on flow cell 2, 3 and 4 of Series S Sensor Chip CM5 (GE Healthcare, BR100530) to achieve a response of approximately 1000 RU. Flow cell 1 was activated/deactivated but left blank as a reference. Human FcRn (Acro Biosystems, FCM-H5286) or mouse FcRn (R&D systems, 9114-Fc) was dialysed and diluted in MHBS-EP⁺B pH 6.0 or pH 7.4 buffer (10 mM MES, FortéBio, 18-5026; 1×HBS-EP, GE Healthcare, BR100669; 0.1 mg/ml BSA, Sigma, A7906) and injected on flow cell 1, 2, 3 and 4 at 2000-3000 nM with 2-fold dilutions for 1 min at 80 μl/min and then allowed to dissociate in buffer for 3 min. […] Subtracted data (flow cell 2−flow cell 1, flow cell 3−flow cell 1, or flow cell 4−flow cell 1) was analysed using Biacore T200 Evaluation Software 2.0 to identify binding using the model steady state affinity.

In experiment [5] the target is T3, mouse FcRn (R&D systems, 9114-Fc) (mouse, UniProt Q61559 22-297; P01887 21-119, limits assumed).
T3 sequence (looked up) 1: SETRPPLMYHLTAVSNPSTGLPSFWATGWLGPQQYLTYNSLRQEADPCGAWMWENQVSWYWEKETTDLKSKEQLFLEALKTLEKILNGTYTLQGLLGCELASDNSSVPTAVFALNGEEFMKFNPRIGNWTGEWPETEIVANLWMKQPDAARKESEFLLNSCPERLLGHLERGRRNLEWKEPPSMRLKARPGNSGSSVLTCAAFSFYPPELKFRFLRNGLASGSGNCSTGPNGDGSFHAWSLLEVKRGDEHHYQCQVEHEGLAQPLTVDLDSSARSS
T3 sequence (looked up) 2: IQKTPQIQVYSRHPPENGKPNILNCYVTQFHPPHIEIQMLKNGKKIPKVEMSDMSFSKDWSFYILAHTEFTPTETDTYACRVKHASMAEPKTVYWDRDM
The description is as above.
Description: as §1, §2

Experiment [6] deals with T1, human CD137, cell-surface. The experiment can be described thus: flow cytometry on DO11.10.hCD137. On the procedure: Non-specific binding was also assessed by testing binding to DO11.10 cells lacking CD137 expression.
Briefly, DO11.10, DO11.10.hCD137 or DO11.10.cCD137 suspensions were prepared in FACS buffer (DPBS containing (Gibco, 14190-094) containing 0.5% BSA (Sigma, A7906)) and seeded at 1×10⁵ cell/well in 100 μl in round bottomed 96-well plates (VWR, 734-1797). […] The washed cells were resuspended in the diluted antibody mixture, incubated at 4° C. for 30 minutes, and then washed once in FACS buffer. […] Dead cells were excluded and the fluorescence in the APC channel (638 nm 660/20) was measured. The geometric mean fluorescence intensity (GMFI) values were plotted vs the log concentration of antibody and the resulting curves were fitted using the log (agonist) vs response equation in GraphPad Prism.
A general note: Flow cytometry measures light scatter and fluorescence of single cells or particles in a stream.

The target in experiment [7] is T4, cPD-L1-His (Acro Biosystems, PD1-C52H4) (cynomolgus, UniProt Q9NZQ7 19-238 (human entry)).
T4 construct: bought; also called Cyno PD-L1-His; Cynomolgus PD-L1-His; not shown: His tag of the bought product
Nature of the experiment: SPR, mAb^2 captured on Protein A chip, antigen in flow. On the procedure:
(§3) Briefly, the anti-human CD137/PD-L1 mAb², diluted in HBS-EP buffer (GE Healthcare, BR100188) at 2 μg/ml, were injected individually on flows cell 2, 3 and 4 of a Protein A chip (GE Healthcare, 29127556) at 30 μl/min to achieve a final response of approximately 110 RU. Two different recombinant human PD-L1 antigens were used i.e. hPD-L1-His-Avi (see Example 1.3 for antigen details) and biotinylated hPD-L1-Avi-His (Acrobiosystems, PD-1-H82E5). Human and cynomolgus PD-L1-His (Acrobiosystems, PD-1-C52H4) antigens, diluted in HBS-EP buffer, were injected on flow cell 1, 2, 3 or 4 as appropriate at a concentration range of 81 nM to 0.037 nM with 3-fold dilutions for 4 min at 75 μl/min and then allowed to dissociate in buffer for 10 min. Regeneration was achieved by injecting 10 mM glycine-HCL pH1.5 (GE Healthcare, Human Antibody Capture Kit, BR00356) for 30 sec at a rate of 30 μl/min. Subtracted data (flow cell 2−flow cell 1, flow cell 3−flow cell 1, or flow cell 4−flow cell 1) were analysed using BIAevaluation 3.2 Software (GE Healthcare) to identify binding using the model 1:1 binding with mass transfer, with refractive index (RI) constant 0.

In experiment [8] the target is T5, biotinylated hPD-L1-Avi-His (Acro Biosystems, PD1-H82E5) (human, UniProt Q9NZQ7 19-238, biotinylated).
T5 construct: bought; also called Human PD-L1-His; not shown: Avi and His tags of the bought product
Described as above. On the procedure: as §3

T4 sequence (Q9NZQ7 other isoform, or with tags, fused parts or gaps): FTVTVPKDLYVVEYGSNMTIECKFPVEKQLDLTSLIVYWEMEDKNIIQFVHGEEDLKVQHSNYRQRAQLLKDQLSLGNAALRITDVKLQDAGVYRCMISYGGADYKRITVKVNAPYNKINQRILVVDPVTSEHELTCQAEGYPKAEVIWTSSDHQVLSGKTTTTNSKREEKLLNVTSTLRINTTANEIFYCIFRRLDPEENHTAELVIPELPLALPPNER
T5 sequence (Q9NZQ7 19-238): as the sequence (Q9NZQ7 other isoform, or with tags, fused parts or gaps) above, with T33A, S34A, N62S, Q68R, R82Q, L173F, A185T, I192T, L215H counted along it
Sequence of Human FcRn (Acro Biosystems, FCM-H5286) (P55899 24-297 limits assumed, chain 1 of 2): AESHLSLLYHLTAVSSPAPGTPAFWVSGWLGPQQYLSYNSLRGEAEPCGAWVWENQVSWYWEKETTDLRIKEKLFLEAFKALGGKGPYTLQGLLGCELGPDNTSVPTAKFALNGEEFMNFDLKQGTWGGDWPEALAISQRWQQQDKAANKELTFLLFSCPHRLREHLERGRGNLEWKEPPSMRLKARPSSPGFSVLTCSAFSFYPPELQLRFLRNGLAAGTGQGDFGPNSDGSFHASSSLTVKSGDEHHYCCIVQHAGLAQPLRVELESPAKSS
Sequence of Human FcRn (Acro Biosystems, FCM-H5286) (P61769 21-119 limits assumed, chain 2 of 2): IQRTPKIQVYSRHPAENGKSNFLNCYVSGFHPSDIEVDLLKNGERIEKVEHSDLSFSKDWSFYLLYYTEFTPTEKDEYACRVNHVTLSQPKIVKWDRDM
T2 sequence (chain, as listed by the source limits assumed): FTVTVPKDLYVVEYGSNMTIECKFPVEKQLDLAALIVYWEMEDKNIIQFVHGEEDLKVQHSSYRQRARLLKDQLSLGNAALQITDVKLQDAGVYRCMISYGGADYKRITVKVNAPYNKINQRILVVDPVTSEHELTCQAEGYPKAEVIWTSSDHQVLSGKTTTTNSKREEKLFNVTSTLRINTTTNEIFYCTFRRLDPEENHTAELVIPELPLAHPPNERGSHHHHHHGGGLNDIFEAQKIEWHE

B1: FS22-172-003-AA/E12v2 (bispecific antibody, human IgG1, kappa, L234A L235A)
heavy: EVQLVQSGAEVKRPGASVKVSCKASGYPFTSYGISWVRQAPGQGLEWMGWISAYSGGTNYAQKLQGRVTMTTDTSTSTAYMELRSLRSDDTAVYYCARDLFPTIFGVSYYYYWGQGTLVTVSSASTKGPSVFPLAPSSKSTSGGTAALGCLVKDYFPEPVTVSWNSGALTSGVHTFPAVLQSSGLYSLSSVVTVPSSSLGTQTYICNVNHKPSNTKVDKKVEPKSCDKTHTCPPCPAPEAAGGPSVFLFPPKPKDTLMISRTPEVTCVVVDVSHEDPEVKFNWYVDGVEVHNAKTKPREEQYNSTYRVVSVLTVLHQDWLNGKEYKCKVSNKALPAPIEKTISKAKGQPREPQVYTLPPSRDELPYIIPPYNQVSLTCLVKGFYPSDIAVEWESNGQPENNYKTTPPVLDSDGSFFLYSKLTVGADRWLEGNVFSCSVMHEALHNHYTQKSLSLSPG
light: DIQMTQSPSTLSASVRDRVIITCRASQSIGNRLAWYQHKPGKAPKLLIYEASTSETGVPSRFSGSGSGTDFTLTISSLQPEDFATYYCQQSYSTPYTFGQGTKLEIKRTVAAPSVFIFPPSDEQLKSGTASVVCLLNNFYPREAKVQWKVDNALQSGNSQESVTEQDSKDSTYSLSSTLTLSKADYEKHKVYACEVTHQGLSSPVTKSFNRGEC
notes: PD-L1 site in the Fab, CD137 site in the CH3, LALA; also called anti-human CD137/PD-L1 mAb^2
On to B1, for which, in experiment [1], the “EC50 (nM), hIL-2 release, CD8+ T cells, donor 171115A, HEK.hPD-L1 XL” value was determined as 0.24 nM; the “EC50 (nM), hIL-2 release, CD8+ T cells, donor 171115A, MDA-MB-231 XL” value was found to be 0.02 nM; the “EC50 (nM), hIL-2 release, CD8+ T cells, donor 171115B, HEK.hPD-L1 XL” value is 0.31 nM; the “EC50 (nM), hIL-2 release, CD8+ T cells, donor 171115B, MDA-MB-231 XL” value was 0.02 nM. The “EC50 (nM), IFN-γ release, CEF antigen recall assay (CD8+ T cell activation)” value in [2] came out at 0.03 nM. Besides, in experiment [3], the “EC50 (nM), IFN-γ release, CEFT antigen recall assay (CD4+ T cell activation)” value is 0.08 nM. Moreover, in the experiment with hPD-L1-His-Avi, the binding result is “binds”. In experiment [4], the Kd is 1120 nM. The molecule further displayed an equilibrium dissociation constant (Kd) in experiment [5] of 158 nM. This molecule yielded a half-maximal effective concentration (EC50) in experiment [6] of 6.2 nM. Also, in experiment [7], the dissociation constant Kd is 0.36 nM. The same molecule had a Kd in [8] of 0.19 nM.

Usually Kd stands for the constant that tells how readily two partners part at equilibrium. A word on the EC50: it is the concentration at which the effect is half-maximal. Low values mean greater potency, high ones weaker potency.
